The subject of one data set is ADA deficient humans. To be noted: weekly intramuscular injection; cited from earlier work.
For data set [1], the system named is ADA deficient mice. The data set can be described thus: ELISA of serum IgE and BALF cytokines after PEGADA. Format: in vivo. To be noted: PEGADA enzyme therapy. The method, then: IFNg, IL-4 and IL-5 levels in BALF were determined using specific murine OptiEA ELISA kits from Pharmagen according to manufactures instructions. For the analysis of IgE levels, blood was collected from the heart of anesthetized mice and the serum separated by centrifugation of samples at 3,000 rpm for 10 min a 4 degrees C. A murine OptiEA ELISA kit from Pharmagen was utilized to quantitate serum IgE levels. Values were read and quantitated at linerarity using a MRX II plate reader equipped with Revelation software (Dynex Technologies).
PEGADA, also known as ADAGEN, was obtained through collaboration with Enzon Inc. (Piscataway, N.J.). Control or ADA deficient mice were lightly anesthetized and injected intramuscularly with 10 microlitetrs of PEGADA corresponding to approximately 2.5 Units of ADA. Injections were given either chronically every 4 days starting at postnatal day 4, or acutely, as one injection on postnatal day 18. Levels of ADA enzyme activity in tissues was measured using zymogram analysis according to established procedures (Blackburn et al., 1998). This procedure visualizes enzyme activity on non-denaturing agarose gels (Blackburn et al., 1998).
(§1) Cell populations were monitored in BALF collected from ADA deficient mice 72 hours following treatment with PEGADA (FIG. 5A), in order to determine what effect PEGADA treatment had on lung inflammation. […]
A general note: An ELISA detects its analyte on a solid surface through an enzyme-linked reagent.

The subject of data set [2] is ADA deficient mice. The experiment in a line: PEGADA enzyme therapy of ADA deficient mice: respiratory status and survival. Format: in vivo. The text has this: The inventors contemplate that PEGADA treatments may be chronic or acute. In preferred chromic treatments a constant level of PEGADA is maintained in the mouse at concentrations of 150 to 300 U/Kg. In preferred acute treatments, a single dose of PEGADA (300 U/Kg) is given.
For chronic treatment of the mice of the present invention, litters are given an intramuscular injection of PEGADA at four days of postnatal file. The initial dose of PEGADA given is approximately 300 U/Kg body weight, where U (unit) is defined as 1 μmole adenosine converted to inosine per minute. this dose is within an order of magnitude of that given to treat ADA deficient humans. Mice were treated every four days with a dose of 150 to 300 U/Kg.
For acute treatment of the mice of the present invention, mice are injected intramuscularly once on postnatal day 18 with 300 U/kg PEGADA.
PEGADA, also known as ADAGEN, was obtained through collaboration with Enzon Inc. (Piscataway, N.J.). Control or ADA deficient mice were lightly anesthetized and injected intramuscularly with 10 microlitetrs of PEGADA corresponding to approximately 2.5 Units of ADA. […] Levels of ADA enzyme activity in tissues was measured using zymogram analysis according to established procedures (Blackburn et al., 1998). This procedure visualizes enzyme activity on non-denaturing agarose gels (Blackburn et al., 1998).
Polyethylene glycol modified ADA (PEGADA) enzyme therapy is a lifesaving strategy used to treat ADA deficient humans (Hershfield et al., 1993). […] The inventors treated ADA deficient mice with intramuscular injections of PEGADA (ENZON, Inc.; Piscataway, N.J.) in an attempt to modulate the respiratory distress seen. Mice were treated intramuscularly with 300 units of PEGADA. […] Even more striking was the observation that PEGADA could reverse the phenotype of an ADA deficient animal after its onset. ADA deficient animals were allowed to develop severe lung inflammation and damage (day 17), and were then treated with PEGADA.

Data set [3] concerns adenosine in the lungs of ADA deficient mice. The data set can be described thus: Quantification of adenosine in lungs (reversed phase HPLC) after PEGADA. The class given is in vivo. The method, then: FIG. 5A and FIG. 5B. Reversible lung eosinophilia and lung adenosine levels in ADA deficient mice treated with PEGADA. FIG. […] Differentials were determined by counting 200 cells from BALF cytospins of each sample, and multiplying the percentage of each cell type found by the total number of cells in the BALF. Mean values are given as total cells (S.E.M.). FIG. […] Mean values are given as nanomoles adenosine per mg protein±S.E.M.
PEGADA, also known as ADAGEN, was obtained through collaboration with Enzon Inc. (Piscataway, N.J.). Control or ADA deficient mice were lightly anesthetized and injected intramuscularly with 10 microlitetrs of PEGADA corresponding to approximately 2.5 Units of ADA. […] Levels of ADA enzyme activity in tissues was measured using zymogram analysis according to established procedures (Blackburn et al., 1998). […]
Mice were anesthetized with avertin, the thoracic cavity exposed, and the lungs were removed and frozen rapidly in liquid nitrogen to prevent metabolism of adenine nucleotides and nucleosides. Adenine nucleosides were extracted from frozen lungs using 0.4 N perchloric acid as described (Knudsen et al., 1992), and adenosine was separated and quantitated using reversed phase HPLC according to established procedures (Knudsen et al., 1992). […]

Data set [4] has as its system ADA deficient mice. The data set can be described thus: Cellular differentials in bronchial alveolar lavage fluid (BALF) after PEGADA. Format: in vivo. The method, then: FIG. 5A and FIG. 5B. Reversible lung eosinophilia and lung adenosine levels in ADA deficient mice treated with PEGADA. FIG. 5A, Total cellular differentials of cells collected from BALF of 18-day old control mice (n=19), ADA deficient mice (n=12) and ADA deficient mice treated with PEGADA and examined 72 hours later (n=5). Differentials were determined by counting 200 cells from BALF cytospins of each sample, and multiplying the percentage of each cell type found by the total number of cells in the BALF. Mean values are given as total cells (S.E.M.). FIG. 5B, Adenosine levels were quantitated in the lungs of 18-day old control mice (n=5), ADA deficient mice (n=4), and ADA deficient mice treated with PEGADA and examined 72 hours later (n=4). Mean values are given as nanomoles adenosine per mg protein±S.E.M.
Mice were anesthetized with avertin and the trachea exposed using blunt dissection. After securing a blunted 21-gauge needle into the trachea, the lungs were lavaged 5 times with 0.25 ml PBS. Lavages from individual animals were pooled and on average 0.95 to 1 ml of lavage fluid was recovered. Samples were centriflged at 2,500 rpm for 5 min to recover cells. Supernatant from these spins were collected and stored at −70 degrees C. for the analysis of cytokines. Cells were resuspended in 200 microliter PBS, an aliquot counted using a hemocytometer and another aliquot cytospun onto microscope slides where cells were stained with Diff-Quick (Dade) for cellular differentials. […] cells per sample were identified and counted under oil immersion.
PEGADA, also known as ADAGEN, was obtained through collaboration with Enzon Inc. (Piscataway, N.J.). […] Levels of ADA enzyme activity in tissues was measured using zymogram analysis according to established procedures (Blackburn et al., 1998). […]
as §1

[5] abbreviates: weekly intramuscular injections of PEGADA from birth.
The mark [6] stands for this setting: 72 hours following treatment with PEGADA.

B1: PEGADA: ADA polypeptides conjugated to polyethylene glycol; also known as ADAGEN, obtained from Enzon Inc. (protein, UniProt P56658 2-363, looked up)
Adenosine deaminase: AQTPAFNKPKVELHVHLDGAIKPETILYYGRKRGIALPADTPEELQNIIGMDKPLSLPEFLAKFDYYMPAIAGCREAVKRIAYEFVEMKAKDGVVYVEVRYSPHLLANSKVEPIPWNQAEGDLTPDEVVSLVNQGLQEGERDFGVKVRSILCCMRHQPSWSSEVVELCKKYREQTVVAIDLAGDETIEGSSLFPGHVKAYAEAVKSGVHRTVHAGEVGSANVVKEAVDTLKTERLGHGYHTLEDATLYNRLRQENMHFEVCPWSSYLTGAWKPDTEHPVVRFKNDQVNYSLNTDDPLIFKSTLDTDYQMTKNEMGFTEEEFKRLNINAAKSSFLPEDEKKELLDLLYKAYGMPSPASAEQCL
modifications: PEG conjugate (pegademase)
Consider B1, for which, in the data set on ADA deficient humans, the “accumulation of ADA substrates in ADA deficient humans” value is on record as “prevents the accumulation of ADA substrates”. Besides, in the data set with ADA deficient mice [1], the “levels of BALF cytokines” value is listed as “no effect” and the “levels of serum IgE” value is listed as “no effect”. Besides, the “rescue of ADA deficient mice that without treatment die by three weeks of age” value with ADA deficient mice [2] (chronic treatment, intramuscular, approx. 300 U/Kg at postnatal day 4, then every four days 150 to 300 U/Kg) was “sufficient to rescue ADA deficient mice”. In the data set with ADA deficient mice [2] (treated after onset of severe lung inflammation and damage (day 17)), the recovery and survival result is “recovered and survived as long as they were maintained on PEGADA”. Also, the respiratory status entry in the data set with ADA deficient mice [2] (treated after onset of severe lung inflammation and damage (day 17), within 24 to 48 hours) is on record as “noticeably improved”. In the data set with ADA deficient mice [2] (setting [5]), the “development of pulmonary problems” value is listed as “never develop pulmonary problems” and the survival result is on record as “survive as long as the animals are maintained on PEGADA”. Besides, the “outcome when PEGADA therapy was stopped” value in the data set on ADA deficient mice [2] (withdrawal of PEGADA therapy) is “rapidly showed signs of pulmonary insufficiency and died within a week”. Also, in data set [3], the “accumulation of adenosine in the lung” value was “prevents the accumulation of adenosine in the lung”. Besides, in data set [3] (72 hrs following treatment with PEGADA, control < 0.2, untreated ADA deficient 6.3 nmoles/mg protein), the “adenosine levels in ADA deficient lungs” value is on record as “lowered to near control levels”. In the data set on ADA deficient mice [4] (setting [6]), the “alveolar macrophages in BALF” value was “remained elevated” and the “number of eosinophils in BALF” value is given as “greatly reduced”. In addition, in the data set with ADA deficient mice [4] (treatment with PEGADA, as stated in Example 9), the “number of eosinophils found in the BALs” value is given as “decrease in the number of eosinophils”.

The record behind these values is US20020088017A1, “Adenosine deaminase deficient transgenic mice and methods for the use thereof” (Board of Regents, The University of Texas System, priority 1999, published 2002).
